Our source for the Kd values is US20110124556 (published 2011).

Positions of bridges follow the written chain, without caps; N, C: chain ends. Non-standard residues stand in square brackets, D forms with d. Chains are numbered I, II in the order given. No end group written: not given here. Tyr(3-I) = N[C@@H](Cc1ccc(O)c(I)c1)C(=O)O; Hyp = O=C(O)[C@@H]1C[C@@H](O)CN1; Tic = O=C(O)[C@@H]1Cc2ccccc2CN1; Ac6c = NC1(C(=O)O)CCCCC1; βturn = not defined here

Sequences and labels used below:
B1: S441 (peptide)
chain 1: ESFYDWFERQLGGGGK
chain 2: WAWVQCEVYGRGCPS
B2: S437 (peptide)
chain 1: ESFYDWFERQLGGGGK
chain 2: LDQEWAWVQCEVYGRGCPS
B3: S256 (peptide)
chain: [Ac6c]CLEE[dW]GASL[Tic]QCSG
modifications: not fully specified (bridges); printed as Acy-CLEEwGASL-Tic-QCSG; cysteine pairing not given here
B4: S432 (peptide)
chain 1: ESFYDWFERQLGGGGK
chain 2: CEVYGRGCPS
B5: S581 (peptide)
chain 1: SLEEEWAQIESEVWGR-βturn
chain 2: ESFYDWFERQLG
modifications: not fully specified; printed as SLEEEWAQIESEVWGR-βturn-ESFYDWFERQLG; ends and bridges not checked
B6: S591 (protein)
chain 1: LEEEWAQIECEVWGRGCSGSLDESF
chain 2: LEEEWAQIECEVWGRGCSGSLDESF
B7: S359 (peptide)
chain 1: XDWLQRNANFYDWFVAEL
chain 2: XDWLQRNANFYDWFVAEL
modifications: listing feature
B8: S433 (peptide)
chain 1: ESFYDWFERQLGGGGK
chain 2: WLDQEWAWVQ
B9: S170 (peptide)
chain 1: CGFHENFYDWFVRQVSKK
chain 2: CGFHENFYDWFVRQVSKK
modifications: disulfide I:1-II:1; not fully specified; ends not checked
B10: S588 (peptide)
chain 1: LEEEWAQVECEV
chain 2: [Tyr(3-I)]GRGCSGSLDESFYDWFERQLG
modifications: ends and bridges not checked
B11: S423 (peptide)
chain 1: ESFYDWFERQLGK
chain 2: ACAWPTYWNCG
modifications: ends and bridges not checked; also: two chains joined C-terminus to C-terminus, the link is not given here
B12: S444 (peptide)
chain 1: ESFYDWFERQLGGGGK
chain 2: VQCEVYGRGCPS
B13: S378 (peptide)
chain 1: GSLDESFYDWFERQLGKKKX
chain 2: GSLDESFYDWFERQLGKKKX
modifications: listing feature

The target in this assay is human insulin receptor (HIR) (human, UniProt P06213). Briefly: competition.
As to FHENAYDWFVRQVSKK [S219], the dissociation constant (Kd) – broadly, the constant that tells how readily two partners part at equilibrium – is greater than 2000 nM.

SLEEEWAQVECEVYGRGCPSESFYDWFVRQLG [S555] had a Kd of 0.057 nM.

On to B1, for which the Kd is 120 nM.

In the case of B2, the Kd was determined as 0.69 nM.

The molecule RWPNFYGYFESLLTHFS [S257] returned a dissociation constant Kd of 14000 nM.

LEEEWAQVECEVYGRGCPSESFYDWFERQL [S536] showed a Kd of 0.083 nM.

For SLEEEWAQIQAEVYGNPNSESFYDWFERQL [S602], the Kd was determined as 0.031 nM.

Take B3: the Kd was found to be 90000 nM.

With WPGYAWLS [S317], the Kd is greater than 20000 nM.

SLEEEWAQIECEVWGRGCPSESFYDWFERQL [S558] displayed an equilibrium dissociation constant (Kd) of 0.019 nM.

As to SLEEEWAQIQCEVWGRGCPSESFYDWFERQL (not fully specified (N-terminus); ends and bridges not checked) [S606], the affinity, expressed as Kd, was 0.004 nM.

As for QAPSNFYDWFVREWDEE [S287], the Kd came out at 59 nM.

In the case of SLEEEWAQIECEVWGRGCPSY [S592], binding was put at a Kd of 17 nM.

As for B4, the Kd is 180 nM.

SLEEEWAQVECEVYGRGCPPGLLDESFYHWFDRQLR [S553] gave a Kd of 0.0073 nM.

For the molecule B5, the Kd stood at 0.012 nM.

Regarding WLDQEWAWVQCEVYGRGCPSGGSGGSGRVDWLQRNANFYDWFVAELG [S511], the Kd was 3.8 nM.

B6 registered a Kd of 0.13 nM.

In turn, SSNFYQALMLLS [S129] had a Kd of 2900 nM.

LDRQFYRYFQDLLVGFM [S260] returned a Kd of 2300 nM.

In the case of B7, the affinity, expressed as Kd, was 700 nM.

In turn, RD[Hyp]FYDWFDD[dI] [S268] returned a Kd of 450 nM.

As for B8, the affinity, expressed as Kd, was 110 nM.

SLEEEWAQVEAEVYGRGAPSGSLDESFYDWFERQLG [S551] returned a Kd of 0.072 nM.

SLNFYDALQLLAKK [S119]: binding was characterised by a dissociation constant (Kd) of 18 nM.

On to B9, for which the Kd is 700 nM.

With LDQEWAWVQCEAYGRGCPSESFYDWFERQL [S503], the dissociation constant (Kd) was 2.1 nM.

The molecule DWLQRNANFYDWFVAELX (listing feature) [S294] yielded a Kd of 130 nM.

GSLDESFYDWFERQLGGGSGGSWLDEEWAQVQCEVYGRGCPS [S543]: the affinity, expressed as Kd, was 0.019 nM.

As to SLEEEWAQIECEVWGRGCPKGFYGWFRRRG [S582], the Kd was found to be 2.5 nM.

On to SLEEEWAQIECEVWGRGCSESFYDWFERQL [S559], for which the Kd stood at 0.021 nM.

SIEEEWAQIKCDVWGRGCSESFYDWFERQL [S556] yielded a Kd of 0.032 nM.

Molecule WGRSFYRYFETLLAQGI [S261] registered a Kd greater than 20000 nM.

Regarding SLEEEWAQVECEVYGRGCPS [S547], binding was put at a Kd of 49 nM.

As to DWLQRNANFYDWFVAELG [S236], binding was characterised by a dissociation constant (Kd) of 100 nM.

CGFHENFYDWFVRQVSKK (not fully specified; ends and bridges not checked) [S171]: the Kd turned out to be 29000 nM.

Molecule SLEEEWAQIEEVWGRSESFYDWFERQLG [S572] returned a Kd of 4.8 nM.

As for B10, the affinity, expressed as Kd, was 0.18 nM.

In turn, AAAAFYDWFAAAAAKK [S168] showed a Kd of 38 nM.

FHENFYDAFVRQVSKK [S222] yielded a Kd greater than 20 nM.

Molecule NANFYDWFVAELG [S241] showed a Kd of 16000 nM.

Molecule [dF][dH][dE][dN][dF][dY][dD][dW][dF][dV][dR][dQ][dV][dS][dK][dK] [S114] came in with a Kd of 83000 nM.

SLEEEWAQIECEVWGRGCPKGFYGWFRRRRG [S584] came in with a Kd of 9.3 nM.

In the case of AFYDWFAK [S180], the Kd was greater than 2000 nM.

The molecule SLEEEWAQIECEVWGRCWHHSFYDWFERQL [S594] showed a dissociation constant Kd of 0.071 nM.

In the case of FHENFYDWFVAQVSKK [S108], the Kd was determined as 750 nM.

The molecule SLEEEWAQIQHELWPVEKGESFYDWFERQL (not fully specified (N-terminus); ends and bridges not checked) [S605] yielded a Kd of 0.094 nM.

Ac-SIEEEWAQIKCDVWGRGSESFYDWFERQL (ends and bridges not checked) [S600]: the Kd was determined as 0.0076 nM.

Regarding B11, the Kd turned out to be 62 nM.

Consider LDQEWAQVQCEVYGRGCPSESFYDWFERQL [S533], for which the equilibrium dissociation constant (Kd) was 0.067 nM.

Molecule SLEEEWAQIESEVWGRSESFYDWFERQLG [S573] showed a Kd of 0.036 nM.

As for B12, the dissociation constant (Kd) was 190 nM.

Ac-SIEEEWAQIKCDVWGRGPSESFYDWFERQLG (ends and bridges not checked) [S568] gave a Kd of 0.0043 nM.

On to B13, for which binding was characterised by a dissociation constant (Kd) of 65 nM.

In the case of SIEEEWAQIKCDVWGRGCPPGLLDESFYHWFDRQLR [S520], the affinity, expressed as Kd, was 0.02 nM.
